This note sets out measurements from patent US20110214193A1, “BIOMARKER FOR MICRODOMAIN DISEASE” (SUMITOMO CHEMICAL COMPANY, LIMITED, priority 2008, published 2011).

Holding throughout (type): cell-based
Test [1] relates to differentiated mouse adipocyte cell line 3T3-L1. Kind of test: Enhancing action by anti-GM2A antibody and ligand on glucose uptake (2-deoxyglucose incorporation). As to the method: (§1) Mouse adipocyte cell line 3T3-L1 was purchased from Health Science Research Resources Bank. Cells of the purchased mouse adipocyte cell line […] were cultured in a D-MEM containing 10% fetal bovine serum (hereinafter referred to as D-MEM (10)) at 37° C. under an atmosphere of 5% CO2. The cultured cells were plated on a 6-well plate. Two days after becoming confluent, the culture solution was exchanged for a pre-differentiation culture solution (D-MEM (10) containing 1 μg/ml insulin, 0.5 mM 3-isobutyl-1-methylxanthine, and 1 μM dexamethasone), and the culture was further cultured for another 4 days. […] Here, the protein concentration of the specimen was measured using BCA Protein Assay Reagent (catalogue No. 23228, Pierce) using bovine serum albumin as a standard protein.
The amount of 2-deoxyglucose in the specimen was quantitatively determined according to the following method. To a plate for fluorescence measurement, were added 100 μl of an assay buffer (50 mM triethanolamine (pH 8.1), 50 mM KCl, 0.5 mM MgCl2, 0.02% bovine serum albumin, 670 μM ATP, 0.12 μM NADP^+, 25 μM resazurin, 5.5 units/ml hexokinase, 16 units/ml G6PDH, 1 units/ml diaphorase) and 100 μl of the specimen. After keeping the obtained mixture at 37° C. for 90 minutes, the fluorescence intensity of the obtained mixture was measured (excitation wavelength: 530 nm, detection wavelength: 595 nm). […]

Test [2] relates to undifferentiated mouse skeletal muscle cell line C2C12. The experiment in a line: Inhibition by GM2A protein of leptin intracellular signaling (AMPK alpha phosphorylation, Western blot). The settings on record: for Phosphorylated AMPK alpha/AMPK alpha: Leptin + (0.1 μg/ml, 30 minutes), 24 hours, no leptin = 1.0, leptin alone = 1.9. As to the method:
(§2) Mouse skeletal muscle cell line C2C12 (CRL-1772) and rat pheochromocytoma cell line PC12 (CRl-1721) were purchased from ATCC. Cells of the both cell lines were cultured in a D-MEM medium containing 10% inactivated fetal bovine serum (catalogue No. 14247-15, NACALAI TESQUE, INC.) at 37° C. under an atmosphere of 5% CO2. Cells of differentiated mouse skeletal muscle cell line C2C12 were prepared by exchanging the medium for a D-MEM containing 2% inactivated equine serum and culturing the mixture for […].
(§3) Human GM2A protein was prepared as follows. First, a cDNA was prepared from human lung cancer cell line HARA-B (catalogue No. JCRB1080.1, Health Science Research Resources Bank), using oligo(dT). Using the prepared cDNA, a PCR fragment containing the full length of human GM2A gene was obtained. The obtained PCR fragment was inserted into pET24a vector (catalogue No. 69749-3, Novagen), whereby human GM2A/pET24a plasmid was prepared. Next, after human GM2A/pET24a was added to Escherichia coli BL21 (DE3) pLysS (catalogue No. 69451-4, Novagen) to transform the Escherichia coli, the obtained Escherichia coli was cultured on shaking in an LB medium containing 50 μg/ml kanamycin at 37° C. until OD600=about 0.5. Then, after Isopropyl-β-thiogalactopyranoside (catalogue No. 9030, Takara Bio Inc.) was added to the obtained culture so that the final concentration could be 0.5 mM, the culture was further cultured on shaking at 18° C. for 3 hours. Bacterial cells were collected by centrifuging the obtained culture, and the collected bacterial cells were sonicated. Then, the obtained homogenate was centrifuged at 11,000 rpm for 30 minutes. After Ni-NTA agarose (catalogue No. 1018244, Qiagen) was added to the obtained supernatant and left at 4° C. for 2 hours, the obtained left object was washed 5 times. From the obtained washed object, an elution fraction of a protein was obtained by elution of a protein with 250 mM imidazole. The obtained elution fraction was purified by anion exchange chromatography HiTrapQ HP, whereby human GM2A protein was prepared. […]
(In general: Immunoblotting shows a protein as a band on a membrane.)

For test [3], the system named is differentiated mouse skeletal muscle cell line C2C12. The experiment in a line: Inhibition by GM2A protein of insulin intracellular signaling (Akt phosphorylation, Western blot). The settings on record: for Phosphorylated Akt/Akt: Insulin + (1 μg/ml, 10 minutes), 24 hours, no insulin = 1.0, insulin alone = 2.1. As to the method:
as §2, §3

Test [4] relates to rat pheochromocytoma cell line PC12. The experiment in a line: Inhibition by GM2A protein of NGF intracellular signaling (Akt phosphorylation, Western blot). Conditions: for Phosphorylated Akt/Akt: NGF + (0.1 μg/ml, 10 minutes), 24 hours, no NGF = 1.0, NGF alone = 1.8. As to the method:
as §2, §3

Test [5] relates to mouse adipocyte cell line 3T3-L1. Kind of test: Inhibitory action by GM2A protein on glucose uptake (2-deoxyglucose incorporation). Conditions: for Amount of 2-Deoxyglucose: relative value per amount of protein, Insulin +, no insulin = 100, insulin alone = 215. As to the method: as §1, with “days. Next, after the pre-differentiation culture solution was exchanged for a post-differentiation culture solution (D-MEM (10) containing 1 insulin) and the culture was cultured for 3 days, the culture solution was exchanged for a D-MEM (10) containing mouse GM2A protein, and the culture was further cultured for another day.” for “days.”
The amount of 2-deoxyglucose in the specimen was quantitatively determined according to the following method. To a plate for fluorescence measurement, were added 100 μl of an assay buffer (50 mM triethanolamine (pH 8.1), 50 mM KCl, 0.5 mM MgCl2, 0.02% bovine serum albumin, 670 μM ATP, 0.12 μM NADP^+, 25 μM resazurin, 5.5 units/ml hexokinase, 16 units/ml G6PDH, 1 units/ml diaphorase) and 100 μl of the specimen. After keeping the obtained mixture at 37° C. for 90 minutes, the fluorescence intensity of the obtained mixture was measured (excitation wavelength: 530 nm, detection wavelength: 595 nm). A calibration curve was created using 2-deoxyglucose of 500 μM, 250 μM, 125 μM and 0 μM (purified water) as a standard, and quantitative determination was carried out on the basis of the calibration curve. The amount of 2-deoxyglucose incorporated into a cell per the amount of protein of the specimen was calculated as a relative value.

Where [6] appears, read: concentration-dependent, 2 and 4 μg/ml.

On to ganglioside GM2, for which, in test [1], the “intracellular incorporation of 2-deoxyglucose” value was “enhanced”. The “Amount of 2-Deoxyglucose” value in test [1] (relative value, 1 μM, 1 day, DMSO = 100) is 120.

B1: GM2AP: Human GM2A protein expressed in Escherichia coli from human GM2A/pET24a, purified by Ni-NTA agarose and anion exchange chromatography (protein)
chain: HLKKPSQLSSFSWDNCDEGKDPAVIRSLTLEPDPIIVPGNVTLSVMGSTSVPLSSPLKVDLVLEKEVAGLWIKIPCTDYIGSCTFEHFCDVLDMLIPTGEPCPEPLRTYGLPCHCPFKEGTYSLPKSEFVVPDLELPSWLTTGNYRIESVLSSSGKRLGCIKIAASLKGI
Turning to B1, the results for the “Phosphorylated AMPK alpha/AMPK alpha” value in test [2] (GM2AP 2 μg/ml) and in test [2] (GM2AP 4 μg/ml) were 1.0 and 0.9, respectively. Besides, the “Phosphorylated Akt/Akt” value came out at 1.8 in test [3] (GM2AP 2 μg/ml), 1.2 in test [3] (GM2AP 4 μg/ml), 1.5 in test [4] (GM2AP 2 μg/ml) and 1.4 in test [4] (GM2AP 4 μg/ml).

B2: GM2A Protein: mouse GM2A protein added to the culture solution of 3T3-L1 cells in Example 8 (protein)
chain: ARLVPKRLSQLGGFSWDNCDEGKDPAVIKSLTIQPDPIVVPGDVVVSLEGKTSVPLTAPQKVELTVEKEVAGFWVKIPCVEQLGSCSYENICDLIDEYIPPGESCPEPLHTYGLPCHCPFKEGTYSLPTSNFTVPDLELPSWLSTGNYRIQSILSSGGKRLGCIKIAASLKGR
For the molecule B2, the “intracellular signaling of leptin” value in test [2] (setting [6]) is “inhibited”. In addition, the “intracellular signaling of insulin” value in test [3] (setting [6]) is recorded as “inhibited”. In addition, the “intracellular signaling of NGF” value in test [4] (setting [6]) is listed as “inhibited”. Also, the “enhancing action by insulin on intracellular incorporation of 2-deoxyglucose” value in test [5] (concentration-dependent, 2 and 10 μg/ml) is given as “inhibited”. In addition, the entries for the “Amount of 2-Deoxyglucose” value in test [5] (GM2A Protein 2 μg/ml) and in test [5] (GM2A Protein 10 μg/ml) were 184 and 156, respectively.
